Measurements published in PMC8239432, “Cross-Reactive SARS-CoV-2 Neutralizing Antibodies From Deep Mining of Early Patient Responses” (Frontiers in Immunology, 2021).

Tests used:
Conditions in all cases: both partners purified
[1] = molecular target: T1, SARS-CoV-2 RBD-rCD4-Avi-His (SARS-CoV-2 (reference sequence), UniProt P0DTC2); assay: SPR
T1 construct: also called RBD-rCD4-His

[2] = molecular target: T2, SARS-CoV-2 RBD-rCD4-Avi-His (SARS-CoV-2, UniProt P0DTC2); assay: SPR
T2 construct: also called RBD-rCD4-His; monomeric RBD; source: Expi293F, purified (Nickel-NTA agarose)

SARS-CoV-1 RBD = molecular target: T3, SARS-CoV-1 RBD (SARS-CoV-1 (SARS-CoV); isolate not …, UniProt P59594); assay: binding assay based on time resolved fluorescence (TRF)
T3 construct: also called RBD subdomain of the SARS-CoV-1 spike protein; source: Expi293F, purified (Nickel-NTA agarose)

[3] = molecular target: T4, MERS-CoV S1 with a His tag (MERS-CoV, isolate EMC/2012 (from …, UniProt K0BRG7)); assay: as above
T4 construct: source: bought: Sino Biological

[4] = molecular target: T5, SARS CoV-2 RBD (Acro BioSystems, SPDC52H3) (SARS-CoV-2 (reference sequence), UniProt P0DTC2); assay: BLI
T5 construct: source: bought: Acro BioSystems

B1: ION_300 IgG1 (antibody, V domains shown)
VH: QVQLVQSGAEVKKPGESLKISCKGSGYSFTSYWIGWVRQMPGKGLEWMGIIYPGDSDTRYSPSFQGQVTISADKSISTAYLQWSSLKASDTAMYYCARHPSPYYYGSGSYSGGFDYWGQGTLVTVSS
VL: DIVMTQSPGTLSLSPGERATLSCRASQSVSSSYLAWYQQKPGQAPRLLIYGASTRATGIPARFSGSGSGTEFTLTISSLQSEDFAVYYCQQYDNWPLMHTFGQGTKLEIK
notes: source: ExpiCHO or Expi293, purified (protein A, SEC)
[1]
  Kd: 3.4 nM
  koff: 0.000775 s⁻¹
  kon: 252000 M⁻¹ s⁻¹

B2: ION_360 IgG1 (antibody, V domains shown)
VH: EVQLVQSGGGLVKPGGSLRLSCAASGITVSSNYMSWVRQAPGKGLEWVSVIYSGGSTYYADSVKGRFTISRDNSKNTLYLQMNSLRAEDTAVYYCARGEGGSIVGVTSDYWGQGTLVTVSS
VL: DIQMTQSPSSLSASVGDRVTITCRASQSISRYLNWYQQKPGKAPKLLIYAASSLQSGVPSRFSGSGSETEFTLTISSLHPDDFATYYCQQSYSTLPYTFGQGTKVEIK
notes: as for B1
[1]
  koff: 0.000279 s⁻¹
  kon: 188000 M⁻¹ s⁻¹

B3: ION_360 IgG1 (antibody, V domains shown)
VH: EVQLVQSGGGLVKPGGSLRLSCAASGITVSSNYMSWVRQAPGKGLEWVSVIYSGGSTYYADSVKGRFTISRDNSKNTLYLQMNSLRAEDTAVYYCARGEGGSIVGVTSDYWGQGTLVTVSS
VL: DIQMTQSPSSLSASVGDRVTITCRASQSISRYLNWYQQKPGKAPKLLIYAASSLQSGVPSRFSGSGSETEFTLTISSLHPDDFATYYCQQSYSTLPYTFGQGTKVEIK
[2]
  Kd: 1.5 nM

B4: ION_300 IgG1 (antibody, V domains shown)
VH: QVQLVQSGAEVKKPGESLKISCKGSGYSFTSYWIGWVRQMPGKGLEWMGIIYPGDSDTRYSPSFQGQVTISADKSISTAYLQWSSLKASDTAMYYCARHPSPYYYGSGSYSGGFDYWGQGTLVTVSS
VL: DIVMTQSPGTLSLSPGERATLSCRASQSVSSSYLAWYQQKPGQAPRLLIYGASTRATGIPARFSGSGSGTEFTLTISSLQSEDFAVYYCQQYDNWPLMHTFGQGTKLEIK
SARS-CoV-1 RBD
  binding result: binds
[3]
  binding result: no binding
[4]
  binding result: binds
